Data taken from patent US20150111836.

Molecular target: purified recombinant N-terminal His6 tagged HIV-1 HXBII Vif protein (E. coli)

B1: purified recombinant A3G-His6 (human APOBEC3G with C-terminal Myc-His6 tag, expressed in 293T cells) (protein)
chain: MKPHFRNTVERMYRDTFSYNFYNRPILSRRNTVWLCYEVKTKGPSRPPLDAKIFRGQVYSELKYHPEMRFFHWFSKWRKLHRDQEYEVTWYISWSPCTKCTRDMATFLAEDPKVTLTIFVARLYYFWDPDYQEALRSLCQKRDGPRATMKIMNYDEFQHCWSKFVYSQRELFEPWNNLPKYYILLHIMLGEILRHSMDPPTFTFNFNNEPWVRGRHETYLCYEVERMHNDTWVLLNQRRGFLCNQAPHKHGFLEGRHAELCFLDVIPFWKLDLDQDYRVTCFTSWSPCFSCAQEMAKFISKNKHVSLCIFTARIYDDQGRCQEGLRTLAEAGAKISIMTYSEFKHCWDTFVDHQGCPFQPWDGLDEHSQDLSGRLRAILQNQEN
A3G-mediated deamination of the ss-deoxyoligonucleotide substrate: Vif inhibits A3G deaminase activity in a dose-dependent manner
